The target of the assay is mouse TIGIT-His (SEQ ID NO: 3) (mouse) (UniProt P86176). In words: BLI (Octet QKe), SEC1 on AMC sensor, mouse TIGIT-His 33 to 1.22 nM, 1:1 global fit. On the technique in general: Biolayer interferometry detects binding as a change in optical thickness at a sensor tip.
mouse TIGIT-His (SEQ ID NO: 3) (mouse), sequence (P86176 other isoform, or with tags, fused parts or gaps limits assumed, form in doubt): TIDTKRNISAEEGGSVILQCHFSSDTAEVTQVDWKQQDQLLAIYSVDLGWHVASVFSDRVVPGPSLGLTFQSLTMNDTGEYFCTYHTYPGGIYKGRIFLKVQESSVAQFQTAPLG

B1: SEC1 mouse IgG2a N297A (antibody, V domains shown)
VH: EVQLVESGGGLTQPGKSLKLSCEASGFTFSSFTMHWVRQSPGKGLEWVAFIRSGSGIVFYADAVRGRFTISRDNAKNLLFLQMNDLKSEDTAMYYCARRPLGHNTFDSWGQGTLVTVSS
VL: DIVMTQSPSSLAVSPGEKVTMTCKSSQSLYYSGVKENLLAWYQQKPGQSPKLLIYYASIRFTGVPDRFTGSGSGTDYTLTITSVQAEDMGQYFCQQGINNPLTFGDGTKLEIKR
What is called Kd is the equilibrium constant for the complex coming apart. High values mean lower affinity, low ones higher affinity. Usually koff stands for the first-order rate constant of dissociation. What is called kon is the second-order rate constant of association. A higher kon goes with fast association. As for B1, the equilibrium dissociation constant (Kd) was 0.32 nM, the koff came out at 0.0006 s⁻¹ and the association rate constant (kon) came out at 1.9e+06 M⁻¹ s⁻¹.

The values are drawn from US20170165366A1.
